Test results as given in US10975142B2, “Endotrophin neutralization and use thereof” (THE BOARD OF REGENTS OF THE UNIVERSITY OF TEXAS SYSTEM, priority 2013, dated 2021).

Key:
[1] = molecular target: T1, native form of endotrophin protein (Mus musculus, UniProt E9PWQ3); assay: capture of IRD-800 labeled native endotrophin by monoclonal antibodies (Protein G Sepharose pull-down); assay type: binding; conditions: 2 hours at room temperature, rat-IgG as control
T1 construct: made in house; purified from conditioned media by gel filtration
T1 sequence (E9PWQ3 with tags, fused parts or gaps): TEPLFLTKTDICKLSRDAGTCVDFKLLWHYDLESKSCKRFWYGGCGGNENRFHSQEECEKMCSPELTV
Excerpt: FIGS. 9A-9C. Generation of endotrophin-specific antibodies. FIG. 9A. HEK-293 cell produced mouse endotrophin was subjected to Western blotting using rabbit anti-mouse endotrophin polyclonal antibody. FIG. 9B. Bacterially produced GST-fused recombinant human endotrophin protein was subjected to western blotting using a rabbit anti-human endotrophin polyclonal antibody. GST protein was used as a negative control. The arrow points at endotrophin. FIG. 9C. […] IRD (infrared dye)-800 labeled native form of endotrophin protein was incubated with either endotrophin monoclonal antibodies, including 4D1, 4F8, 10B6-A11, 10B6-B5, and 10B6-C3 or a rat-IgG for 2 hours at room temperature and subsequently incubated with Protein G Sepharose for 1 hour. The protein-Sepharose complex was separated on a 10-20% Tricine gel after 3 times washing with PBS. Captured endotrophin protein was visualized on a Licor Odyssey Infrared Scanner (Licor Bioscience). Green color represents the IRD800 channel.

[2] = molecular target: T2, ETP (Mus musculus, UniProt E9PWQ3); assay: in vivo Matrigel bioassay (stromal cell recruitment into plugs); conditions: recombinant ETP 100 ng/plug vs PBS, mammary fat pads of WT mice
T2 sequence (E9PWQ3 with tags, fused parts or gaps limits assumed): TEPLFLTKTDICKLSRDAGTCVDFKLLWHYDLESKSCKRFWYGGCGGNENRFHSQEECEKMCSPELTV
Experimental: (§1) FIGS. 7A-7I: ETP acts as a chemokine augmenting tumor growth. […] Tumor volume was determined 1 month after implantation (representative images). Data represent mean±SEM (n=5 per group). ***P<0.001, unpaired t test. (FIG. 7B) In vivo Matrigel bioassay. Matrigel (50 μl) was mixed with ETP (100 ng/plug) or PBS and implanted into WT mice in the presence of IgG, 1D11, or 10B6 (20 μg/plug). 2 days after implantation, plugs were excised and stained for FIG. 7H & FIG. 7E. Scale bars: 100 μm. (FIGS. 7C-7H) Cancer cells were plated in the bottom chamber 1 day prior to seeding MS-1 cells (5×10^5 cells/well) and macrophages (1×10^5 cells/well) atop the membrane chamber in Transwell and incubated for 18-24 hours (FIG. 7C). (FIGS. 7D, 7E, 7F, 7G) Representative images of multiple independent experiments. Scale bars: 100 μm. (FIG. 7H) Quantitation (mean±SEM; n=3 per group). ***P<0.001, […], unpaired t test. (FIG. 7I) MS-1 migration assay. MS-1 cells (5×10^5 cells/well) were plated atop the chamber in Transwell and incubated for 24 hours. Chemotaxis was set up by following cell migration from DMEM/serum-free to DMEM/2% FBS/PBS or DMEM/2% FBS/ETP protein (1 μg/well). Images are representative of multiple independent experiments. Data represent mean±SEM (n=3 per group). ***P=0.008, unpaired t test. Scale bars: 100 μm.

[3] = test system: MCF7; assay: cell number counts with recombinant endotrophin protein; assay type: cell-based, human; conditions: MCF-7, purified ETP
Experimental: (§2) FIGS. 15A-15D. Endotrophin has a limited effect on tumor cell proliferation. FIG. 15A. […] An equal number of cancer cells were freshly isolated from tumor tissues of PyMT (ctrl-cancer cells) and PyMT/endotrophin (ETP^+-cancer cells) and implanted into WT mice (1×10^6 cells/mouse). Tumor volume was determined 1 month post-implantation. Quantitative results are represented as mean±SEM (n=7/group). p=n.s vs. Ctrl-cancer cells by unpaired t-test. FIG. 15B. Met-1 cells were seeded into the 96 well plates and incubated with DMEM/10% FBS/PBS, DMEM/10% FBS/endotrophin, or conditioned media acquired from HEK293 or HEK293/endotrophin-overexpressing cells for 24 hours. Mitotic activity was measured with a Mitotic Index Assay Kit (Active Motif) following the manufacturer's protocol. Paclitaxel (1 μM) was used as a positive control of mitosis. Quantified results are represented as mean±SEM (n=10/group) p=n.s vs. PBS or Ctrl-media by unpaired t-test. FIG. 15C. Human breast cancer cells, MCF7 (0.1×10^5) were plated in the 24 well plates with or without recombinant endotrophin protein and cell numbers were counted over time. The quantification of results is represented as mean±SEM (n=6/group, triplicate). p=n.s vs. PBS by unpaired t-test. FIG. 15D. […] Endomucin positive area was quantified and represented as mean±SEM (multiple images, n=4/group). ***p=0.0008 vs. ctrl by unpaired t-test. Scale bars: 200 μm.

[4] = test system: Met-1 cells; assay: allografts of Met-1 cells with ETP or PBS and 1D11 or IgG in a Matrigel plug; assay type: in vivo, mouse; conditions: ETP 20 ng/plug vs PBS
Experimental: FIGS. 6A-6H: ETP augments metastasis through enforcing TGF-β-dependent EMT. (FIG. 6A) E-cadherin immunostaining for tumor tissues from PyMT and PyMT/ETP. (FIG. 6B and FIG. 6C) SBE-luciferase reporter assay. See Supplemental Methods for details. Data represent fold increase (3 independent experiments). **P<0.01, *P<0.05, 2-way ANOVA. pRA-ctrl, empty; pRA-sETP, secretion form; pRA-ETP, intracellular form. (FIGS. 6D-6G) Allografts of Met-1 cells in the presence of either ETP (20 ng/plug) or PBS mixed with 1D11 or IgG (10 μg/plug) within a Matrigel plug. 10 days after implantation, additional 1D11 or IgG (100 μg) was i.p. injected once a week during tumor progression. (FIG. 6D) Tumor volumes represent means±SEM (n=5 per group). *P<0.05, 2-way ANOVA. (FIG. 6E) H&E staining. The ratio of stromal area in tumor tissues was quantified. Data represent mean±SEM (n=5 per group). *P<0.05, unpaired t test. T; tumor and S; stroma. (FIG. 6F) Fibrosis was determined by Masson's Trichrome C stain. Data represent mean±SEM (n=5 per group). **P<0.01, ***P<0.001, unpaired t test. (FIG. 6G) Western blotting for EMT markers E-cadherin, vimentin, and α-SMA. β-actin, loading control. Data represent fold increase (n=5 per group). *P<0.05, **P<0.01, ***P<0.001, unpaired t test. […] 20 days post injection, metastasized cancer cells in the lung tissues were determined by fluorescence intensity. […]

[5] = test system: MS-1 cells; assay: MS-1 migration assay (Transwell); assay type: cell-based, mouse; conditions: ETP protein 1 μg/well, 24 hours
Experimental: as §1, with “Chemotaxis was set up by following cell migration from DMEM/serum-free to DMEM/2% FBS/PBS or DMEM/2% FBS/ETP protein (1 μg/well). Images are representative of multiple independent experiments. Data represent mean±SEM (n=3 per group). ***P=0.008, unpaired t test. Scale bars: 100 μm.” left out
Thioglycollate-elicited macrophages or MS-1 in serum-free media were loaded into the upper chamber of a Transwell plate (8 μm pore size; Costar). […] 18 hours later, cells on the underside of the membrane were fixed with 10% formalin, stained with hematoxylin, and counted. […]

[6] = analysis of ETP homing (IRD-800 labeled ETP, tail vein); assay type: in vivo, mouse
Experimental: FIGS. 2A-2D: ETP levels in human cancer specimens and its target tissues. (FIG. 2A and FIG. 2B) Human cancer tissues compared with those of benign tissues were immunostained with human ETP-specific polyclonal antibody. Human samples for breast cancer (FIG. 2A) and colon cancer (FIG. 2B) were analyzed. […] (FIG. 2C and FIG. 2D) Whole body in vivo imaging of injected ETP. IRD-800 fluorescence-labeled ETP protein (10 μg) was intravenously injected into WT, 8-week-old PyMT, and 10-week-old PyMT mice by tail vein. (FIG. 2C) ETP levels were visualized by the Licor Infrared Scanner 10-90 minutes after injection. Arrows indicate mammary tumors. L, liver; B, bladder; T, tumor. IgG was used as a negative control. (FIG. 2D) Tissues were excised 2 hours after injection, and ETP-positive fluorescence signals were determined with a Licor Infrared Scanner. Quantified values were normalized to total area and represented as percentage of WT. ***P<0.001.
The homing of ETP in circulation was determined by injecting fluorescently labeled ETP into tail veins. ETP and IgGs were labeled with IRDye800 CW NHS Ester (Licor Bioscience) at a 1:1 molar ratio (dye/protein), according to the manufacturer's instructions. Whole-body fluorescence images were collected on the Odyssey scanner (Licor Bioscience). […] Quantified values were normalized to the total area of each organ.

[7] = test system: Met-1 cells; assay: Mitotic Index Assay with endotrophin; assay type: cell-based, mouse; conditions: Met-1, purified ETP, 24 hours
Experimental: as §2

B1: 10B6-A11: rat anti-mouse endotrophin monoclonal antibody (antibody, V domains shown)
VH: QVQLQQSGPELAKPGSSVKISCKASGYTFTSYEMHWIKQRPGQGLEWIGYIYPESGSTGYNEKFKGKATLTVDKSSPTAYMQLSSLTPDNSAVYFCTRGLRVLGYVMDVWGHGTSVTVSS
VL: DVQLTQSPSFLSASVGDRVTINCKASQNINKYLNWYQQKLGEAPKRLIYNTNNLQTGIPSRFSGSASGTDYTLTISSLHPEDFATYFCLQHSSLYTFGAGTKLELK
capture of the native form of endotrophin protein [1]: efficiently capture

B2: 10B6-C3: rat anti-mouse endotrophin monoclonal antibody (antibody, V domains shown)
VH: QVQLQQSGPELAKPGSSVKISCKASGYTFTSYEMHWIKQRPGQGLEWIGYIYPESGSTGYNEKFKGKATLTVDKSSPTAYMQLSSLTPDNSAVYFCTRGLRVLGYVMDVWGHGTSVTVSS
VL: DVQLTQSPSFLSASVGDRVTINCKASQNINKYLNWYQQKLGEAPKRLIYNTNNLQTGIPSRFSGSASGTDYTLTISSLHPEDFATYFCLQHSSLYTFGAGTKLELK
capture of the native form of endotrophin protein [1]: efficiently capture

B3: 10B6-B5: rat anti-mouse endotrophin monoclonal antibody (antibody, V domains shown)
VH: QVQLQQSGPELAKPGSSVKISCKASGYTFTSYEMHWIKQRPGQGLEWIGYIYPESGSTGYNEKFKGKATLTVDKSSPTAYMQLSSLTPDNSAVYFCTRGLRVLGYVMDVWGHGTSVTVSS
VL: DVQLTQSPSFLSASVGDRVTINCKASQNINKYLNWYQQKLGEAPKRLIYNTNNLQTGIPSRFSGSASGTDYTLTISSLHPEDFATYFCLQHSSLYTFGAGTKLELK
capture of the native form of endotrophin protein [1]: efficiently capture

B4: ETP: cleaved C5 fragment of the COL6α3 chain, used as recombinant or purified protein (protein)
chain: TEPLFLTKTDICKLSRDAGTCVDFKLLWHYDLESKSCKRFWYGGCGGNENRFHSQEECEKMCSPELTV
stromal cells recruited into Matrigel plugs [2]: significantly more stromal cells | cell proliferation (cell numbers over time) [3]: not affected | tumor growth for Met-1 cells [4]: significantly enhanced | MS-1 cells recruited (migration) vs controls [5]: twice as many | whole body in vivo distribution of labeled ETP ([6]; 10 μg i.v., PyMT mice, compared with control-labeled IgGs): predominantly observed in tumor lesions | ETP fluorescence in excised tissues relative to mammary glands of WT mice ([6]; tissues excised 2 hours after injection): highly enriched in mammary tumor tissues | cell proliferation (mitotic activity) [7]: not affected
